Experiment: soluble on expression in E. coli; label from the status in PepcDB or PDB records

Soluble on expression in E. coli, soluble:
SLRITAIREIAVPLQGNISNSLVSFAEHTVSLVALVSDVVRDGRPLIGYAFDSIGRYAQPGLMRERFIPRLLQAAPHELLDDGGQAFDPARASAIMLRNEKPGGHGDRAAAVGALELAFWDLNAKLRDEPAYCTIARHVGRPAQAGATQVYAAGGYYYDSGDPLQRLRDEFRGYLDQGFVKFKMKIGGASLADDLARIEAALGVAGEGANLAVDANGRFDLDTALAYARALEPYGLRWYEEIGDPLDYHLNSLVAQAYAGTIATGENLFSLPDVRNLLHFAGVRPGRDILQMDPGLSYGLTEYLRMMAAVEAAGFGRSCLHPHGGHLINLHIAAGLGLGGCEAYPGVFQPFGGYPAACALGAGQVRPTDAPGFGLEQKQELAPYISVLAHG, WTCNKFRCGEKRLTRSLCACSDDCKDQGDCCINYSSVCQGEKS, MRHYKTLRYYETVFAVKPTLSEEEMKKKFEQVKEFIKQKGGEILYEEDWGMRQLAYPIQKFNNARYFLVQFKTENPQLPNELDFQLKIDEDVIRWLNIQIKESEVKKNAQ

Soluble on expression in E. coli, not soluble:
MKALTYHGPHHVKVENVPDPGIEQPDDIILRVTATAICGSDLHLYRGKIPQVKHGDIFGHEFMGEVVETGHDVKNIRKGDRVVIPFVIACGDCFFCRLQQYSACENTNDGHGAAMNKKQIPPPAALFGYSHLYGGVPGGQAEYVRVPKGNVGPFKVPPLLSDDKALFLSDILPTAWQAAKNAQIQQGFSVAVFGAGPVGLLTIACARLLGAEQIFVVDHHAWRLRFAEERYGAIPINFDDENDPAEKIIEQTAGHRGVDAVIDAVGFEAKGSLTETVLTNLKLEGSSGKALRQCIAAVRRGGVVSVPGVYAGFIHGFLFGDAFDKGLTFKMGQTHVHAWLGELLPLIEKGLLKPEEIVTHYMPFEEAARGYEIFEKREEECRKVILVPGATSAQAAQKQATGVVNPMPGGVV, MTLKLIENLQKLGFTGNEAKVYSSLVCLKQAKASEIAENAGVPRPKIYGTLRTMEKKGYVRIIEGEPTIFCCIQPEELILRLKSDFLLFLRETASELNSLNPGNSDFVSEGFYRERIKV, MGSDKIHHHHHHMTTNKEQYKVHQEPYYQAQGREVQLYEAAYRNRLPVMVKGPTGCGKSRFVEYMAWKLNKPLITVACNEDMTASDLVGRYLLEANGTRWLDGPLTTAARIGAICYLDEVVEARQDTTVVIHPLTDHRRTLPLDKKGELIEAHPDFQLVISYNPGYQSLMKDLKQSTKQRFAAFDFDYPDAALETTILARETGLDETTAGRLVKIGGVARNLKGHGLDEGISTRLLVYAATLMKDGVDAGDACRMALVRPITDDADIRETLDHAIDATFA, MNNVFVYCEIEGTTVADVSLELLTKGRKLANQLGCQLEAIAAGTGLAGIEKQVLPYGVDKLHVFDAPGLFPYTSLPHTSILVNLFKEEKPQICLMGATVIGRDLGPRVSSALTSGLTADCTQLEIGTHEDKKNGITYENLLYQIRPAFGGNIVATIVNPEHRPQMATVREGVMKKEILDENYKGEVVNHDVAKFVPETDYVV, MARKNAVKDNLEQIQHQSYSELQELLSEANSMLADSAAFAGDKADSARARIGALLEKANDALGKGGSAVAERSRHAVDATESYIGANPWQTVAITTAVGLLAGFLLGRRS, MKIHHIGPMGVNPYQRQLAKTERLAAEKAPRDQVEISKEAKELQEAASWEQARQAKLEELRQQIENGAYQVDPRAVAKRMIEYYRNHR, SPFDANKLYCSEVLAILLQDNDENRELLGELDGIDVLLQQLSVFKRHNPSTAEEQEMMENLFDSLCSCLMLSSNRERFLKGEGLQLMNLMLREKKISRSSALKVLDHAMIGPEGTDNCHKFVDILGLRTIFPLFMKSPRKIKKVGTTEKEHEEHVCSILASLLRNLRGQQRTRLLNKFTENDSEKVDRLMELHFKYLGAMQVADKKIEGEKHDMVRRGEIIDNDTEEEFYLRRLDAGLFVLQHICYIMAEICNANVPQIRQRVHQILNMRGSSIKIVRHIIKEYAENIGDGRSPEFRENEQKRILGLLENF, MPMPFTRDDDYDSDPEVQAEKEMAKKDPIGFAIDSSSLTSMKKAAAAAAKDQVSTTPPNLVIGSNGGAGTIATVPRSKSQDEIVKKQKTAGQSKALKKQRSRGISGCSSRKYSGYDDEMDEDFGDDEDYDHYGGQEVFDEDEEDTFVAKK
